The values that follow come from paper PMC3937519.

For test [1], the target named is HIV-1 NL4.3 Vif M29A, recombinant (E. coli) (HIV-1 NL4.3). Put plainly: pull-down.
For test [2], the target named is HIV-1 NL4.3 Vif H28A, recombinant (E. coli) (HIV-1 NL4.3). Put plainly: pull-down.
For test [3], the target named is HIV-1 NL4.3 Vif Y30A, recombinant (E. coli) (HIV-1 NL4.3). Description: pull-down.
In test [4] the target is HIV-1 NL4.3 Vif H27A, recombinant (E. coli) (HIV-1 NL4.3). Put plainly: pull-down.
The target in test [5] is Vif V25A-CBF-β-Elo B/C complex (HIV-1 NL4.3 | human | not stated) (UniProt Q13951). Put plainly: ITC.
Test [6] concerns the target wild-type Vif-CBF-β-Elo B/C complex (HIV-1 NL4.3 | human | not stated) (UniProt Q13951). Put plainly: ITC. A general note: In ITC the heat of successive injections is recorded.
For test [7], the target named is Vif H27A-CBF-β-Elo B/C complex (HIV-1 NL4.3 | human | not stated) (UniProt Q13951). Put plainly: ITC.
For test [8], the target named is Vif H108A-CBF-β-Elo B/C complex (HIV-1 NL4.3 | human | not stated) (UniProt Q13951). Put plainly: ITC.

What is called Kd is the equilibrium constant for the complex coming apart. A lower Kd goes with higher affinity.

A value given as a limit tells only on which side of the number the result lay.

Consider “N-terminal Cul5, co-expressed in E. coli (Cul5/Vif pET-Duet) (domain or fragment)”, for which the percent reduction of Cul5 binding against wild-type Vif in test [1] was over 60%; in test [2], 20%; in test [3], over 60%; in test [4], over 60%.

As to “Cul5-NTD (residues 1 to 393, V341R, L345D) (from UniProt Q93034 1-393) (domain or fragment)”, the Kd in test [5] was found to be 511 nM; in test [6], 5.9 nM; in test [7], 660 nM; in test [8], 36 nM. The dH in test [6] is -9 kcal/mol; in test [8], -4 kcal/mol.
